Assays:
Settings in all cases: remark: other sources report otherwise
[1] = molecular target: human HSP60 (60-kDa Heat Shock Protein) (human), P10809; test: native gel or EMSA; purified HSP60 and HSP10 each run on Native-PAGE (5-12% gradient gel by the legend; Blue NativePAGE 3-12% Bis-Tris by the methods), in the absence of ATP, Coomassie stain
[2] = molecular target: human HSP60 (60-kDa Heat Shock Protein) (human), P10809; test: negative-stain transmission electron microscopy; HSP60 and HSP10 (0.1 mM) incubated for 10 min in the absence of Mizoribine, treated with 2% uranyl acetate; particles classified and counted
[3] = molecular target: human HSP60 (60-kDa Heat Shock Protein) (human), P10809; test: negative-stain transmission electron microscopy; HSP60 and HSP10 (0.1 mM) incubated for 10 min with 10 mM Mizoribine, treated with 2% uranyl acetate; particles classified and counted
[4] = molecular target: human HSP60 (60-kDa Heat Shock Protein) (human), P10809; test: native gel or EMSA; HSP60 and HSP10 mixed at the same molar ratio, PBS or Mizoribine below 10 mM (1, 5 mM); Native/PAGE gradient gel, Coomassie stain

B1: human HSP60 (60-kDa Heat Shock Protein), P10809 27-573 (natural protein)
chain: AKDVKFGADARALMLQGVDLLADAVAVTMGPKGRTVIIEQSWGSPKVTKDGVTVAKSIDLKDKYKNIGAKLVQDVANNTNEEAGDGTTTATVLARSIAKEGFEKISKGANPVEIRRGVMLAVDAVIAELKKQSKPVTTPEEIAQVATISANGDKEIGNIISDAMKKVGRKGVITVKDGKTLNDELEIIEGMKFDRGYISPYFINTSKGQKCEFQDAYVLLSEKKISSIQSIVPALEIANAHRKPLVIIAEDVDGEALSTLVLNRLKVGLQVVAVKAPGFGDNRKNQLKDMAIATGGAVFGEEGLTLNLEDVQPHDLGKVGEVIVTKDDAMLLKGKGDKAQIEKRIQEIIEQLDVTTSEYEKEKLNERLAKLSDGVAVLKVGGTSDVEVNEKKDRVTDALNATRAAVEEGIVLGGGCALLRCIPALDSLTPANEDQKIGIEIIKRTLKIPAMTIAKNAGVEGSLIVEKIMQSSSEVGYDAMAGDFVNMVEKGIIDPTKVVRTALLDAAGVASLLTTAEVVVTEIPKEEKDPGMGAMGGMGGGMGGGMF
How did the stoichiometry N [1] turn out when B1 was run?
Its stoichiometry N is 7.

What about the stoichiometry N [2] of the same binder?
Its stoichiometry N is 7.

And the share of observed particles as HSP60 (7) (single ring structure, no HSP10), with 10 mM Mizoribine [3]?
Its share of observed particles as HSP60 (7) (single ring structure, no HSP10), with 10 mM Mizoribine is 4%.

What about the stoichiometry N [4] of the same binder?
The stoichiometry N was 7.

Source: publication PMC11203801
